The text below walks through data of patent US20150259426A1 (Novartis, published 2015).

The target of experiment [1] is T1, cynomolgus DR5-Fc fusion protein (cyno DR5 amino acids 56 to 213 fused with human IgG1 Fc) (cynomolgus; human). The experiment can be described thus: ELISA, periplasmic extract, plate coated with cynomolgus DR5-Fc, anti-myc detection. Background: ELISA stands for enzyme-linked immunosorbent assay.
The target of experiment [2] is T2, cell-bound cynomolgus DR5 (CHO-K1 cells transfected with the full length cynoDR5 gene) (cynomolgus).
T2 construct: whole, on cells
The experiment can be described thus: FACS, periplasmic extract on CHO-K1 cells expressing cynomolgus DR5, anti-myc detection. In general terms: Flow cytometry measures light scatter and fluorescence of single cells or particles in a stream.

Experiment [3] deals with T1, cynomolgus DR5-Fc fusion protein (cyno …). The experiment can be described thus: SPR (Biacore), CM5 chip coated with cynomolgus DR5-Fc, 1 to 100 nM NB construct. On the technique in general: In SPR one partner is held on a chip, and binding of the other changes the refractive index at the surface.
Experiment [4] deals with T3, cell-bound human DR5 (Colo205 and other human cell lines) (human, UniProt O14763 56-440).
T3 construct: endogenous DR5 of the cell lines
The experiment can be described thus: FACS, periplasmic extract on Colo205 cells, anti-myc detection.

Experiment [5] addresses cynomolgus DR5 (construct used not stated) (cynomolgus). Description: SPR kinetics (Biacore), cynomolgus DR5.
The target of experiment [6] is T2, cell-bound cynomolgus DR5 (CHO-K1 cells …). The experiment can be described thus: FACS saturation binding, apparent KD, cell-bound cynomolgus DR5.
Experiment [7] has as its target T4, CD27 extracellular domain (TNFRSF7, Thr21-Ser187) (UniProt P26842 21-187).
T4 construct: range 21-187; ECD cloned into pBadThioTopo; E. coli lysate on His capture plates
Description: ELISA, receptor ECD from E. coli lysate on His capture plate.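 Note: binding specificity screen across TNF receptor superfamily ectodomains, anti-V5 detection as expression reference, primary antibody incubation 1 h at room temperature.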

The target in experiment [8] is T5, hGITR (human, UniProt Q9Y5U5).
T5 construct: extracellular domain, E. coli lysate captured on a His capture plate; Target named only on the sheet; the construct is not described in the text
T5 sequence (extracellular domain, looked up): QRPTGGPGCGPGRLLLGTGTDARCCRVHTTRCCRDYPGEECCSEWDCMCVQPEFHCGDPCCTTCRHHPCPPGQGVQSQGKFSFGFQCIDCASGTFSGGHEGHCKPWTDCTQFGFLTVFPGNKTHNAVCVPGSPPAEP
The experiment is described as above.

For experiment [9], the target named is T6, DcR3 (TNFRSF6B, Val27-Ala176) (UniProt O95407 27-176).
T6 construct: range 27-176; ECD cloned into pBadThioTopo; E. coli lysate on His capture plates
T6 sequence (looked up): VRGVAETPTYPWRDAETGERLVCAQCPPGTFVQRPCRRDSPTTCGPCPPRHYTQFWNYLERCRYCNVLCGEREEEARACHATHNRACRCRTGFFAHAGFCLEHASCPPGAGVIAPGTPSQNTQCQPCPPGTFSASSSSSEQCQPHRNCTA
The experiment is described as above.

Experiment [10] concerns the target T7, TNFR1 extracellular domain (TNFRSF1A, Leu34-Thr211) (UniProt P19438 34-211).
T7 construct: range 34-211; ECD cloned into pBadThioTopo; E. coli lysate on His capture plates
T7 sequence (looked up): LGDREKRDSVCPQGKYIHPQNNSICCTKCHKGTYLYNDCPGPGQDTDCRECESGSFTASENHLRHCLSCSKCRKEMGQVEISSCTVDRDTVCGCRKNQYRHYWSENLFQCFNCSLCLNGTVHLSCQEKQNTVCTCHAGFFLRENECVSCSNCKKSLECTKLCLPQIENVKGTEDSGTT
The description is as above.

Experiment [11] has as its target T8, OPG (TNFRSF11B, Lys17-Ile197) (UniProt O00300 17-197).
T8 construct: range 17-197; ECD cloned into pBadThioTopo; E. coli lysate on His capture plates
T8 sequence (looked up): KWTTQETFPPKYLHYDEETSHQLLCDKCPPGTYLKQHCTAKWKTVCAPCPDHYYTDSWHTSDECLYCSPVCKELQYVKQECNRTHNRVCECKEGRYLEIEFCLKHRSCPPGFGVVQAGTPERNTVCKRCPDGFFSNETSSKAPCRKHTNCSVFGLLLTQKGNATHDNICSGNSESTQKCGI
Described as above.

Experiment [12] has as its target T9, CD137 extracellular domain (TNFRSF9, Glu19-Ile188) (UniProt Q07011 19-188).
T9 construct: range 19-188; ECD cloned into pBadThioTopo; E. coli lysate on His capture plates
The experiment is described as above.

For experiment [13], the target named is T10, BAFFR extracellular domain (TNFRSF13C, Met1-Gly64) (UniProt Q96RJ3 1-64).
T10 construct: range 1-64; ECD cloned into pBadThioTopo; E. coli lysate on His capture plates
T10 sequence (Q96RJ3 1-64 limits assumed): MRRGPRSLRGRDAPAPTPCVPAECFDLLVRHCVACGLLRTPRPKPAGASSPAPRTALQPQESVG
The experiment is described as above.

Experiment [14] concerns the target T11, FAS extracellular domain (TNFRSF6, Ser20-Gly175) (UniProt P25445 20-175).
T11 construct: ECD cloned into pBadThioTopo; E. coli lysate on His capture plates
T11 sequence (looked up): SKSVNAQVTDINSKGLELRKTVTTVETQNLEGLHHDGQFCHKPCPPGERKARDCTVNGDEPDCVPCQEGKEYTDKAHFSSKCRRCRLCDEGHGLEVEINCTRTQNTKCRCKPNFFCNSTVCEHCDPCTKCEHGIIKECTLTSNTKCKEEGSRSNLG
Described as above.

For experiment [15], the target named is T12, TNFR3 extracellular domain (TNFRSF3, Pro30-Thr224) (UniProt P36941 30-224).
T12 construct: range 30-224; ECD cloned into pBadThioTopo; E. coli lysate on His capture plates
T12 sequence (P36941 30-224 limits assumed): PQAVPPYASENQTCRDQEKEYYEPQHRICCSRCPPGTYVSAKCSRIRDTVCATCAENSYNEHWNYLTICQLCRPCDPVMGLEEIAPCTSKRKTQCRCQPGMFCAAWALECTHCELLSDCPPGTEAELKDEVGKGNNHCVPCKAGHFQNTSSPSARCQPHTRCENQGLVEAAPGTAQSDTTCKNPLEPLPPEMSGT
The description is as above.

For experiment [16], the target named is T13, DcR2 extracellular domain (TNFRSF10D, Thr57-Thr198) (UniProt Q9UBN6 57-198).
T13 construct: range 57-198; ECD cloned into pBadThioTopo; E. coli lysate on His capture plates
T13 sequence (looked up): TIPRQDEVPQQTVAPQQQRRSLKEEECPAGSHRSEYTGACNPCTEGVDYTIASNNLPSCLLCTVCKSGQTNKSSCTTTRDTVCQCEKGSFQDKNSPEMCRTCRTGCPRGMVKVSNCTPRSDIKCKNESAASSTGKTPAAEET
Described as above.

The target of experiment [17] is T14, OX40 extracellular domain (TNFRSF4, Gly33-Gly212) (UniProt P43489 33-212).
T14 construct: ECD cloned into pBadThioTopo; E. coli lysate on His capture plates
T14 sequence (looked up): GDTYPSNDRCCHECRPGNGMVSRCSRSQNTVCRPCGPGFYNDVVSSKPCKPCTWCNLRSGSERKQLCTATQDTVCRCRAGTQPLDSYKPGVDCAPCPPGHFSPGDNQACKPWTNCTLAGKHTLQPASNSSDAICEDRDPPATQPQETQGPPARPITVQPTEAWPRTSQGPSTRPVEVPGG
Described as above.

The target in experiment [18] is T15, CD40 extracellular domain (TNFRSF5, Val18-Leu192) (UniProt P25942 18-192).
T15 construct: range 18-192; ECD cloned into pBadThioTopo; E. coli lysate on His capture plates
T15 sequence (P25942 18-192 limits assumed): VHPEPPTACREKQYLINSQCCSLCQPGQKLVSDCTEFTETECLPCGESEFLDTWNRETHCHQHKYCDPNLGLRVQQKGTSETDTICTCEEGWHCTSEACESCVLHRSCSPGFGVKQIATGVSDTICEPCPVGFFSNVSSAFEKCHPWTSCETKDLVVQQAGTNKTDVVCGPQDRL
The description is as above.

For experiment [19], the target named is T3, cell-bound human DR5 (Colo205 and other …). The experiment can be described thus: cell-based or functional assay.
For experiment [20] the target is unchanged. The experiment can be described thus: cell-based or functional assay. The source holds these as a separate data set.

T9 sequence (Q07011 19-188 limits assumed): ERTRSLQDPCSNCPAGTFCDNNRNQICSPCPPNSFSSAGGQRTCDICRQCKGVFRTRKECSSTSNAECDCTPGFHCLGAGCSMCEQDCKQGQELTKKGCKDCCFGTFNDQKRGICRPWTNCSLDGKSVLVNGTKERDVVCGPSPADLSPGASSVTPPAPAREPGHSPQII
T4 sequence (P26842 21-187 limits assumed): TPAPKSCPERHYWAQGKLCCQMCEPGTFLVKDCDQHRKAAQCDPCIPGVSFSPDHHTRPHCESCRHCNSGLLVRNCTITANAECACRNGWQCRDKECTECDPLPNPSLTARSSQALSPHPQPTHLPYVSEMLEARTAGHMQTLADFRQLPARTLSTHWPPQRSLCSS

B1: 10F1 (monomeric anti-DR5 NB construct) (VHH)
VHH: EVQLVESGGGLVQPGGSLRLSCAASGFTFSRYWMYWVRQAPGKGLEWVSAINSGGGDTYYRDSVRGRFTISRDNFKNTLYLQMNSLKSEDTAVYYCAKAEGPPTFSLIRTMTVDPGAQGTQVTVSS
notes: llama VHH; periplasmic extract or purified monovalent material from E. coli; not shown: C-terminal c-myc tag and (His)6 tag coded by the vector
Take B1: the ABS405 nm in [1] was found to be 0.124 ABS405 nm. In addition, the mean count fluorescence came to 1630 in experiment [2] and 125 in experiment [4]. This molecule also returned a Kd in [3] of 140 nM.

B2: 7A12 (monomeric anti-DR5 NB construct) (VHH)
VHH: EVQLVESGGGLVQAGGSLRLSCAASGRTFSNYAMGWFRQAPGKEREFVAALNWSGGSTYYVDSVKGRFTISRDNAKNTVYLQMNSLKPEDTAVYYCAAAGSFSLGGRPYGDDYWGKGTLVTVSS
notes: as for B1
Turning to B2, the ABS405 nm in experiment [1] was determined as 0.341 ABS405 nm. Besides, the mean count fluorescence worked out at 24500 in experiment [2] and 1100 in experiment [4]. Also, the Kd in experiment [3] was 7.1 nM.

B3: 4E6 (monomeric anti-DR5 NB construct) (VHH)
VHH: EVQLVESGGGSVQAGDSLRLSCAASGRTFGSIRVGWFRQTPGKEREFVAAINRNDGTTYYADSVKGRFTISRDNAKNTVYMQMASLKPEDTAVYYCAAGLQYNRSADRVPVGAVYWGQGTQVTVSS
notes: llama VHH; periplasmic extract or purified monovalent material from E. coli; also called 4E6 parent; wild type 4E6; not shown: C-terminal c-myc tag and (His)6 tag coded by the vector
For the molecule B3, the results for the Kd in experiment [5], in experiment [6] and in experiment [3] were 5.5 nM, 7.3 nM and 16 nM, respectively. The same molecule registered an ABS405 nm in experiment [1] of 0.313 ABS405 nm. The mean count fluorescence is 2870 in experiment [2] and 972 in experiment [4].

B4: 4E6-Hu (monovalent humanized, N-glycosylation knock-out variant of 4E6) (VHH)
VHH: EVQLLESGGGLVQPGGSLRLSCAASGRTFGSIRVGWFRQAPGKGREFVSAINRNDGTTYYADSVKGRFTISRDNSKNTVYLQMNSLRPEDTAVYYCAAGLQYNRAADRVPVGAVYWGQGTLVTVSS
notes: produced in E. coli and purified
With B4, the Kd is 1.6 nM in experiment [5] and 8.8 nM in [6].

B5: 11H6 tri (trivalent anti-DR5 NB construct) (VHH)
chain: EVQLVESGGGLVQPGGSLRLSCAASGTFDKINNMGWYRQAPGKQRDLVAQITPGGITDYADSVKGRFTISRDNAKDTMYLQMNSLKPEDTAVYFCNAEILKRAYIDVYVNYWGQGTQVTVSSGGGGSGGGGSGGGGSGGGGSGGGGSGGGGSGGGGSEVQLVESGGGLVQPGGSLRLSCAASGTFDKINNMGWYRQAPGKQRDLVAQITPGGITDYADSVKGRFTISRDNAKDTMYLQMNSLKPEDTAVYFCNAEILKRAYIDVYVNYWGQGTQVTVSSGGGGSGGGGSGGGGSGGGGSGGGGSGGGGSGGGGSEVQLVESGGGLVQPGGSLRLSCAASGTFDKINNMGWYRQAPGKQRDLVAQITPGGITDYADSVKGRFTISRDNAKDTMYLQMNSLKPEDTAVYFCNAEILKRAYIDVYVNYWGQGTQVTVSS
notes: three VHH units in one chain joined by GlySer linkers; not shown: CMYC-HIS6 tag
With B5, the binding result in [7] is reported as “no binding (tested: not stated)”. Besides, the binding result in experiment [8] is “no binding (tested: not stated)”. Moreover, the binding result in experiment [9] is recorded as “no binding (tested: not stated)”. Besides, the binding result in [10] was “no binding (tested: not stated)”. The binding result in [11] is “no binding (tested: not stated)”. The binding result in [12] is reported as “no binding (tested: not stated)”. For the same molecule, the binding result in experiment [13] was “no binding (tested: not stated)”. Further, the binding result in [14] was “no binding (tested: not stated)”. In addition, the binding result in [15] is recorded as “no binding (tested: not stated)”. For the same molecule, the binding result in experiment [16] was “no binding (tested: not stated)”. In addition, the binding result in [17] is given as “no binding (tested: not stated)”. In addition, in experiment [18], the binding result is “no binding (tested: not stated)”. Also, in experiment [19], the “IC50, cell survival, A549” value is not below 20 nM; the “IC50, cell survival, ARPE-19” value was not below 20 nM; the “IC50, cell survival, H226” value was not below 20 nM; the “IC50, cell survival, H2052” value was found to be 0.36 nM. In experiment [19], the “IC50, cell survival, H2122” value came to 0.012 nM; the “IC50, cell survival, Huvec” value is not below 20 nM; the “IC50, cell survival, IMR-90” value was not below 20 nM; the “IC50, cell survival, Jurkat” value is not below 20 nM. In addition, in [19], the “IC50, cell survival, M30” value was not below 20 nM; the “IC50, cell survival, MiaPaCa-2” value is not below 20 nM; the “IC50, cell survival, Molt4” value is not below 20 nM; the “IC50, cell survival, Panc-1” value is not below 20 nM. Moreover, the “IC50, cell survival, Colo205” value in experiment [20] was determined as 0.0458 nM. The Kd in experiment [3] was less than 0.3 nM.

B6: 11D1 (monomeric anti-DR5 NB construct) (VHH)
VHH: EVQLVESGGGLVQPGGSLRLSCAASGSIDSINNMGWYRQAPGKQRELVAEITPRGRTNYADSEKSRFTISRDNAKRTVNLQMNSLKPEDTAVYYCNAEVRERGTSWYRPDYWGQGTQVTVSS
notes: as for B1
As to B6, the ABS405 nm in [1] was determined as 0.213 ABS405 nm. For the same molecule, the mean count fluorescence amounted to 417 in experiment [2] and 919 in experiment [4]. Also, the Kd in experiment [3] came out at 220 nM.
